Patent publication US20050130898A1 (HIDECHIKA OKADA, published 2005)
Each block holds one binder with its values, some of them ahead of it. Bridge positions count the residues as written; N and C are the ends. Ends that are not written are not given here. I, II: the chains in the order shown.

Columns and labels:
[1] = molecular target: T1, CPI-2KR (linear 9-mer peptide Cys-Lys-Pro-Ala-Lys-Asn-Ala-Arg-Cys)
T1 chain: CKPAKNARC

Carboxypeptidase R (CPR) [2] = molecular target: T2, Carboxypeptidase R (CPR) (human, UniProt Q96IY4 115-423); test: enzyme kinetics, Ki against that of PCI
T2 construct: domain: 309-amino acid enzyme (CPR; 35 kDa) after cleavage at Arg92; also called plasma carboxypeptidase B (CPB); carboxypeptidase U (CPU)
T2 sequence (looked up): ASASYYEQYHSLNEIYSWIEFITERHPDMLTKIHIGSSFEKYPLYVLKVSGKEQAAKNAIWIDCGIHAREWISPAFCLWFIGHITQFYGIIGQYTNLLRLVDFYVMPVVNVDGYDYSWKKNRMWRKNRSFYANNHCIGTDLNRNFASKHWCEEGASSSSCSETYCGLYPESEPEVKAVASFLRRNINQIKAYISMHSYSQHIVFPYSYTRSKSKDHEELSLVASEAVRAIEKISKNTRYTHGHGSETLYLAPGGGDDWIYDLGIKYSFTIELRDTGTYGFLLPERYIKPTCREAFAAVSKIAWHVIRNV
Method: (§1) The reduced inhibitory activity of this PCI-derived peptide may be attributed to the absence of two of the three disulfide bridges founds in wild type PCI, effectively resulting in increased mobility of all residues.
(§2) The activity of the CPR inhibitors was determined against purified CPR using hippuryl-L-arginine as the substrate. The peptides PCI-2K-R, CPI-2KR, PCI (500, 250/125/62.5, 50 mg/ml, respectively) or Tris-HCl buffer (50 mM; pH 7.5) were added to active CPR (40-320 mg/ml) at a 1:7 ratio. After thorough mixing, […] was incubated with various concentrations of hippuryl-L-arginine (1.2-6.0 mM), for 15 minutes at 37° C. The reaction was stopped with the addition of sodium phosphate buffer ([…]; 0.25 M), immediately followed by 3% cyanuric chloride in 1,4-dioxane ([…]). After mixing well, the generation of hippuric acid was determined by measuring the OD at 405 nm on a SpectraMAX 250 Microplate Spectrophotometer (Molecular Device Corporation, Sunnyvale, Calif., USA). Hippuric acid (0-2.0 mM) in Tris buffer was used as the standard.
(§3) A kinetics analysis of the CPR-catalysed hydrolysis of hippuryl-L-arginine in the absence and presence of inhibitory molecules was performed. The Lineweaver-Burk reciprocal plot, based on rearrangement of the Henri-Michaelis-Menten equation into a linear form, was applied: […]

Carboxypeptidase R (CPR) [3] = molecular target: T2, Carboxypeptidase R (CPR); test: enzyme kinetics, Ki against that of PCI-2K-R
Method: (§4) In order to gain insight into the inhibitory mechanism of CPI-2KR against CPR, a classical Henri-Michaelis-Menten kinetics analysis was performed. Since the Lineweaver-Burke plot (FIG. 3C) is prone to error, particularly at low concentrations of inhibitor and substrate, the Dixon plot (1/v versus [I]) was employed to evaluate the inhibitory mechanism of CPI-2KR (FIG. 3D). Replotting of the slopes of the Dixon plot against 1/[S] confirmed that CPR-2KR is a competitive inhibitor of CPR given that the line went through the origin (FIG. 3D insert). The Km Kmₐₚₚ and Vmax were determined from the data obtained for no inhibitor and the highest inhibitor concentration (253 nM) from the Lineweaver-Burke plots (FIG. 3E) . These values were in turn used to calculate the dissociation constant of CPI-2KR (Ki).
(§5) The activity of the CPR inhibitors was determined against purified CPR using hippuryl-L-arginine as the substrate. The peptides PCI-2K-R, CPI-2KR, PCI (500, 250/125/62.5, 50 mg/ml, respectively) or Tris-HCl buffer (50 mM; pH 7.5) were added to active CPR (40-320 mg/ml) at a 1:7 ratio. […] After mixing well, the generation of hippuric acid was determined by measuring the OD at 405 nm on a SpectraMAX 250 Microplate Spectrophotometer (Molecular Device Corporation, Sunnyvale, Calif., USA). […]

Carboxypeptidase R (CPR) [4] = molecular target: T2, Carboxypeptidase R (CPR); test: enzyme kinetics, CPR hydrolysis of hippuryl-L-arginine, Lineweaver-Burke at 253 nM inhibitor
Method: as §4, §5

Carboxypeptidase R (CPR) [5] = molecular target: T2, Carboxypeptidase R (CPR); test: cell-based or functional assay
Carboxypeptidase R (CPR) [6] = molecular target: T2, Carboxypeptidase R (CPR); test: enzyme kinetics, CPR hydrolysis of hippuryl-L-arginine, competitive inhibition
Method: as §1, §2, §3

B1: Carboxypeptidase R (CPR) (protein)
chain: T2 sequence (looked up)
- Dixon plot and slope replot, CPR-catalysed hydrolysis of hippuryl-L-arginine [1]: confirmed that CPR-2KR is a competitive inhibitor of CPR

B2: Carboxypeptidase N (CPN) (protein)
chain 1: CPMGCDCFVQEVFCSDEELATVPLDIPPYTKNIIFVETSFTTLETRAFGSNPNLTKVVFLNTQLCQFRPDAFGGLPRLEDLEVTGSSFLNLSTNIFSNLTSLGKLTLNFNMLEALPEGLFQHLAALESLHLQGNQLQALPRRLFQPLTHLKTLNLAQNLLAQLPEELFHPLTSLQTLKLSNNALSGLPQGVFGKLGSLQELFLDSNNISELPPQVFSQLFCLERLWLQRNAITHLPLSIFASLGNLTFLSLQWNMLRVLPAGLFAHTPCLVGLSLTHNQLETVAEGTFAHLSNLRSLMLSYNAITHLPAGIFRDLEELVKLYLGSNNLTALHPALFQNLSKLELLSLSKNQLTTLPEGIFDTNYNLFNLALHGNPWQCDCHLAYLFNWLQQYTDRLLNIQTYCAGPAYLKGQVVPALNEKQLVCPVTRDHLGFQVTWPDESKAGGSWDLAVQERAARSQCTYSNPEGTVVLACDQAQCRWLNVQLSPQQGSLGLQYNASQEWDLRSSCGSLRLTVSIEARAAGP
chain 2: VTFRHHRYDDLVRTLYKVQNECPGITRVYSIGRSVEGRHLYVLEFSDHPGIHEPLEPEVKYVGNMHGNEALGRELMLQLSEFLCEEFRNRNQRIVQLIQDTRIHILPSMNPDGYEVAAAQGPNKPGYLVGRNNANGVDLNRNFPDLNTYIYYNEKYGGPNHHLPLPDNWKSQVEPETRAVIRWMHSFNFVLSANLHGGAVVANYPYDKSFEHRVRGVRRTASTPTPDDKLFQKLAKVYSYAHGWMFQGWNCGDYFPDGITNGASWYSLSKGMQDFNYLHTNCFEITLELSCDKFPPEEELQREWLGNREALIQFLEQVHQGIKGMVLDENYNNLANAVISVSGINHDVTSGDHGDYFRLLLPGIYTVSATAPGYDPETVTVTVGPAEPTLVNFHLKRSIPQVSPVRRAPSRRHGVRAKVQPQARKKEMEMRQLQRGPA
- CPN-catalysed hydrolysis of hippuryl-L-arginine [1]: CPI-2KR did not exhibit any inhibitory activity against CPN at 506 nM

B3: CPI-2KR (linear 9-mer peptide Cys-Lys-Pro-Ala-Lys-Asn-Ala-Arg-Cys) (peptide)
peptide: CKPAKNARC-NH2
modifications: cysteine pairing not given here
notes: Linear form, no disulfide between the terminal Cys residues
- fold higher Ki than that of PCI (Carboxypeptidase R (CPR) [2]): 6 fold
- fold stronger binding affinity than PCI-2K-R (Carboxypeptidase R (CPR) [3]): ~46 fold
- Ki (Carboxypeptidase R (CPR) [4]): 8.8 nM
- effective inhibitory concentration relative to PCI (fold) (Carboxypeptidase R (CPR) [5]): 10 fold
- effective inhibitory concentration, TM-induced retardation of t-PA-induced fibrinolysis (Carboxypeptidase R (CPR) [5]): 126 nM

Second part, led by results:

- Ki (Carboxypeptidase R (CPR) [6]): 1.4 nM
Binder: QQHADPICNKPCKTHDDCSGAWFCQACWNSARTCGPYVG (other, UniProt P01075 1-39, looked up, disulfide 12-27, 18-34, 8-24, mature) [potato carboxypeptidase inhibitor (PCI)]
- reversal of TM-induced suppression of t-PA-induced fibrinolysis in human plasma (Carboxypeptidase R (CPR) [5]): 12 nM

- fold lower inhibitory activity compared to PCI (Carboxypeptidase R (CPR) [2]): 290 fold
- Ki (Carboxypeptidase R (CPR) [6]): 407 nM
B4: PCI-2K-R (heterodimer of PCI-2K and PCI-R joined by a disulfide bond) (peptide)
chain 1: NKPCKTHDD-NH2
chain 2: QACWNSART-NH2
modifications: disulfide I:4-II:3; N-terminus assumed
SMILES: C[C@H](NC(=O)[C@H](CO)NC(=O)[C@H](CC(N)=O)NC(=O)[C@H](Cc1c[nH]c2ccccc12)NC(=O)[C@H](CSSC[C@H](NC(=O)[C@@H]1CCCN1C(=O)[C@H](CCCCN)NC(=O)[C@@H](N)CC(N)=O)C(=O)N[C@@H](CCCCN)C(=O)N[C@H](C(=O)N[C@@H](Cc1c[nH]cn1)C(=O)N[C@@H](CC(=O)O)C(=O)N[C@@H](CC(=O)O)C(N)=O)[C@@H](C)O)NC(=O)[C@H](C)NC(=O)[C@@H](N)CCC(N)=O)C(=O)N[C@@H](CCCNC(=N)N)C(=O)N[C@H](C(N)=O)[C@@H](C)O
notes: also called CPI-2K-R (label in claim 5)
